Results from patent US12691186B2, “B7-H3 miniproteins, conjugates, and uses thereof” (priority 2023, dated 2026).
Primed or numbered codes have the meaning given here. [ ]: non-standard residue; d: D form. The star is where a group is joined. Biotin = O=C1N[C@H]2[C@H](CS[C@H]2CCCCC(=O)*)N1; Lys(Me2) = CN(C)CCCC[C@H](N)C(=O)O; PEG4′ = not defined here

Tests used:
[1] = test system: opossum kidney proximal tubule cells; test: OK-PTC uptake assay of miniprotein conjugates in presence of scaffold A decoys; assay type: cell-based; conditions: compound 20 μM; for % Uptake reduction in the presence of a decoy C118: 20-fold molar excess of decoy C118; for % Uptake reduction in the presence of a decoy C119: 20-fold molar excess of decoy C119
Method: This Example describes reduction of uptake of exemplary truncated and constrained B7-H3 miniprotein conjugates (C272, C308, C234, C394, C250, and C228) when combined with exemplary scaffold A decoys (C118, C119 and C120) as compared to no decoy. Uptake of compounds was evaluated in opossum kidney proximal tubule cells (as described in Example 5). Here, cells were treated with a compound in the presence or absence of a 20-fold molar excess of exemplary scaffold A decoys, C118, C119, and C120. Results depicting uptake of six exemplary B7-H3-targeting compounds, C272, C308, C234, C394, C250, and C228, in OK-PTC cells in the presence and absence of exemplary decoys C118, C119, and C120 (scaffold A decoys) are shown in Table 13. The B7-H3-targeting compounds were used at 20 μM and the decoys used at a 20-fold (with C272, C308, C234, C394, and C250) and 10-fold (with C228) molar excess.

[2] = In vitro metabolic stability, plasma; assay type: in vitro ADME; design: unit not given here; conditions: 37° C.
Method: (§1) Exemplary miniprotein conjugates were spiked into biological matrices at initial concentration between 1-2 μM. Tested matrices were varied by species (mouse, rat, human) and type (plasma, serum, and kidney brush border membrane preparations tested each from 0.625-100 μg/mL protein content). Tested conditions were incubated with TAs at 37° C. for 4 hours. At collection points of 0, 15, 30, 60, 120, 240 minutes, 50 μL of each condition were quenched by organic solvent (methanol or acetonitrile) or the addition of 4% phosphoric acid solution. Fractions of each quenched timepoint were subsequently assayed for parent TA concentration by high resolution LC-MS. Percent-parent-remaining-time plots were constructed from the ratio of each given time collection to the time-zero parent TA. Percent-parent-remaining in mouse serum and plasma for exemplary miniproteins are recorded in Table 8.

[3] = In vitro metabolic stability, kidney brush border membrane preparations (KBBM); assay type: in vitro ADME; design: unit not given here; conditions: mouse kidney brush border membrane preparation, 37° C.
Method: as §1

Substance	% Uptake reduction in the presence of a decoy C118 [1] [%]	% Uptake reduction in the presence of a decoy C119 [1] [%]	% Uptake reduction in the presence of a decoy C120 ([1]; 20-fold molar excess of decoy C120) [%]	In vitro Stability (mouse) - Plasma [2]	In vitro Stability (mouse) - KBBM [3]
C250 ({Biotin-PEG4′}-CAKEKIAALSEIIWLPCLTYAQI[Lys(Me2)]AFIAALNDDPCQSSEILSEAKELNDSQCP-NH2; disulfide (positions not given here); also: disulfide bonds between pairs of the four Cys, pairing not given here) [Compound C250]	90.2	97.4			
C272 (CAREKIAALSEIIWLPCLTYAQIXAFIAALNDDPCQSAEILSEAKELCS; Biotin-PEG4 N-term, dimethyllysine, C-amide; SITE 24 dimethyllysine) [Compound C272]	95.6	98.8	97.5		
C303 (CAREKIAALSEIIWLPCLTYAQIXAFIAALNDDPCQSANILSEAXELCS; DOTA-PEG4 N-term, methyllysines, C-amide; SITE 24 monomethyllysine; SITE 45 monomethyllysine) [Compound C303]				>12	>12
C305 (CAXEKIAALSEIIWLPCLTYAQIXAFIAALNDDPCQSSEILSEAXELCS; DOTA-PEG4 N-term, methylated lysines, C-amide; SITE 3 trimethyllysine; SITE 24 monomethyllysine; SITE 45 monomethyllysine) [Compound C305]				>12	>12
C307 (CAXEKIAALSEIIWLPCLTYAQIXAFIXALNDDPCQSSEILSEAXELCS; DOTA-PEG4 N-term, methylated lysines, C-amide; SITE 3 trimethyllysine; SITE 24 monomethyllysine; SITE 28 monomethyllysine; SITE 45 monomethyllysine) [Compound C307]				>12	>12
C311 (CAXEKIAALSEIIWLPCLNYAQIXAFIAALNDDPCQSSEILSEAXELCS; DOTA-PEG4 N-term, methylated lysines, C-amide; SITE 3 trimethyllysine; SITE 24 monomethyllysine; SITE 45 monomethyllysine) [Compound C311]				>12	>12
C313 (CAXEKIAALSEIIWLPCLTYAQIXAFIAALNDDPCNSSEILSEAXELCS; DOTA-PEG4 N-term, methylated lysines, C-amide; SITE 3 trimethyllysine; SITE 24 monomethyllysine; SITE 45 monomethyllysine) [Compound C313]				>12	>12
C317 (CAXEKIAALSEIIWLPCLTYAQIXAFIARLNDDPCQSAEILSEAXELCS; DOTA-PEG4 N-term, methylarginine, methyllysines, C-amide; SITE 3 Rme; SITE 24 monomethyllysine; SITE 45 monomethyllysine) [Compound C317]				>12	
C319 (CAXEKIAALSEIIWLPCLTYAQIXAFIAXLNXDPCQSSEILSEAXELCS; DOTA-PEG4 N-term, methyllysines, citrulline, C-amide; SITE 3 trimethyllysine; SITE 24 dimethyllysine; SITE 29 monomethyllysine; SITE 32 citrulline; SITE 45 monomethyllysine) [Compound C319]				>12	>12
C349 (CAREKIAALSEIIWLPCLTYAQIXAFIAALNDDPCQSAEILSEAQELCS; DOTA-PEG4, methyl-Lys, C-terminal amide; SITE 24 monomethyllysine) [Compound C349]				>12	>12
C354 (CAREKIAALSEIIWLPCLTYAQIXAFIAALNDDPCQSSEILSEAXELCS; not fully specified; DOTA-PEG4, methyl-Lys, C-terminal amide; SITE 24 monomethyllysine; SITE 45 monomethyllysine) [Compound C354]				>12	>12
C467 (CAREKINALGEIIWLPCLTYDQIXAFIAALNDDPCQSSEILSEAXELCS; not fully specified; DOTA-PEG4, methyl-Lys, C-terminal amide; SITE 24 monomethyllysine; SITE 45 monomethyllysine) [Compound C467]				>12	>12
C493 (CAREKINALGEIIWLPCLTYDQIXAFIAXLNDDPCQSSEILSEAXELCS; not fully specified; DOTA-PEG4, methyl-Lys, C-terminal amide; SITE 24 monomethyllysine; SITE 29 monomethyllysine; SITE 45 monomethyllysine) [Compound C493]				>12	>12
